# Test results published in PMC3764172.
# Target: T1, PGN_0753 (HaeR) response regulator, His6-tagged (Porphyromonas gingivalis ATCC 33277) (UniProt B2RIS7)
# T1 sequence: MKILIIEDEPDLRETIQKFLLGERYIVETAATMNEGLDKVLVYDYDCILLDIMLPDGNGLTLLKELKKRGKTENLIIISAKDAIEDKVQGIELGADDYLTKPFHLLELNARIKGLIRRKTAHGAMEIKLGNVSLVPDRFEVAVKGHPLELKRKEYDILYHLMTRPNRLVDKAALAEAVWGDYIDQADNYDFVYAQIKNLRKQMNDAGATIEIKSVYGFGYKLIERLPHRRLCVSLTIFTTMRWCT
# Experiment: EMSA
row,Sequence,binding
1,CATTTTGATGAAATTAGAATATGATTTTACTGTGTAGTACCCCTTCTGTATTTATGCATTATAAAGTCTTCTTGGGAGACAAAATTCACATAGAAACCGAAAGAAATACCACAATCGCAAATATATGCACTTTTCCTTTAAACGCGAATCAAAATATGCATAATATATTGCCCAAAAGCTGTCATTCGGATTGATTGATGGCCTCATATTGGGTTTGCA (double strand) [rgpA (PGN_1970) promoter],binds
2,CCCTTGTCGCTTATATTGAAAACATGTTCTTTATAATCCGATACTCTTCTTAAATCGAATTTTTTCTCTAAATTGCGCCGCAACAAAACTCCTTGAGAAAAGTACCAATAGAAATAGAAGGTAGCATTTTGCCTTTAAATTCCTTTTCTTTTCTTGGATTGTTCTTGAAATGAATCTTATTTGTGGATCTTTTTTGTTTTTTTAACCCGGCCGTGGTTCTCTGAATCACGACCATAAATTGTTTTAAAGT (double strand) [kgp (PGN_1728) promoter],binds
3,CGTATCCGGGTTATACGATCTGTCGTTTGGATATTGAAAATCATTTCTATCGGAACTATACGCTCCATATCGGTGCGGAGAACCTGTTCGATTATAAACCCAAAGCATTGGCATTCAATTCCCCGACATCACCCGGACGTATCATATACGGGTTGGTTCGGATCACTTTCTAATACGACTTATTTGCAACAGAAATATAATTCGCCACG (double strand) [hmuS upstream region],binds
4,TAAGTGATTGAAAGACTTCGTTTGCTGAGATTCGAGCAAATCGTCTTGGGACAAAGATATAAAAAAGTGCCACCGAATTTGCACCTCGTCCCCAAAACACAGGCGTAAAATATCCGCACATCCCGGGACTGCAAAGGGAGAGCATGCTATTTCAGGAAAAATTCAGTTTTACCATGTTATATTTGTAAAAGAAGATCAATCCAAACAGGGCTATCCAGATG (double strand) [haeR (PGN_0753) promoter],binds
5,TAGCGTCATTCTTTTCATAGACTTTTCTTTTGCGTTAAACTTAAAATTATTACTGTTATGTTGTTTTCTTTTCTTCTCCGGTTTTACCCTAACCAAGGGAAGTCTCAAAAAGCCGCTACCGGCGTTAGACACAAGTCACGAAACTTCCACAACTGTCCTATGATACGGACAGCCACAAAACTAAATAAAAAAATGCAACCAGACTAATCCTATTATCC (double strand) [ragA (PGN_0293) promoter],binds
